PMC11961710, “Design and implementation of aerobic and ambient CO2-reduction as an entry-point for enhanced carbon fixation” (Nature Communications, 2025)

Tests used:
BKACE15 = target: T1, BKACE15 (Paracoccus denitrificans, UniProt A1B802); assay: crystal structure at […] Å (with acetyl-CoA); product inhibition measured by LC-MS with purified enzyme; type: biochemical
T1 construct: gene Pden_3578
T1 sequence (A1B802 1-310): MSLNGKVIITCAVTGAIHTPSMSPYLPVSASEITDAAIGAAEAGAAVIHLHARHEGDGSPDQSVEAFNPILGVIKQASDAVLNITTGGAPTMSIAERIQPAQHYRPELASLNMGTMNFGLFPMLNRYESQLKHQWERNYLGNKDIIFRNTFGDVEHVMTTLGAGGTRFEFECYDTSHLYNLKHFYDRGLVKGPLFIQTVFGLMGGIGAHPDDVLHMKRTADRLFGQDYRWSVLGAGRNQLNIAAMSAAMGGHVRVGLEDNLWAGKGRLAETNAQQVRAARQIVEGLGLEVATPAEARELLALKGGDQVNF

purified protein [1] = substrate: O=CCC(=O)O; assay: purified protein; type: biochemical, Paracoccus denitrificans; conditions: Zn2+ MSA must enter the active site first, before acetyl-CoA can bind
purified protein [2] = substrate: CC(=O)SCCNC(=O)CCNC(=O)[C@H](O)C(C)(C)COP(=O)(O)OP(=O)(O)OC[C@H]1O[C@@H](n2cnc3c(N)ncnc32)[C@H](O)[C@@H]1OP(=O)(O)O; assay: purified protein; conditions: Zn2+ active site entry channel, fully occupied upon acetyl-CoA binding

Row | IC50 (BKACE15) [mM] | Molecule | Km (purified protein [1]) [µM] | Km (purified protein [2]) [µM]
1 | 1.45 ± 0.16 | CC(=O)CC(=O)O [AAE, acetoacetate] | – | –
2 | – | BKACE15 (Paracoccus denitrificans PD1222) (protein) MSLNGKVIITCAVTGAIHTPSMSPYLPVSASEITDAAIGAAEAGAAVIHLHARHEGDGSPDQSVEAFNPILGVIKQASDAVLNITTGGAPTMSIAERIQPAQHYRPELASLNMGTMNFGLFPMLNRYESQLKHQWERNYLGNKDIIFRNTFGDVEHVMTTLGAGGTRFEFECYDTSHLYNLKHFYDRGLVKGPLFIQTVFGLMGGIGAHPDDVLHMKRTADRLFGQDYRWSVLGAGRNQLNIAAMSAAMGGHVRVGLEDNLWAGKGRLAETNAQQVRAARQIVEGLGLEVATPAEARELLALKGGDQVNF | 830 ± 90 | 110 ± 10
